B1: Noggin (protein, UniProt Q13253 28-232, looked up, species assumed)
Noggin: QHYLHIRPAPSDNLPLVDLIEHPDPIFDPKEKDLNETLLRSLLGGHYDPGFMATSPPEDRPGGGGGAAGGAEDLAELDQLLRQRPSGAMPSEIKGLEFSEGLAQGKKQRLSKKLRRKLQMWLWSQTFCPVLYAWNDLGSRFWPRYVKVGSCFSKRSCSVPEGMVCKPSKSVHLTVLRWRCQRRGGQRCGWIPIQYPIISECKCSC
B2: Coco (protein, UniProt Q8N907 23-189, looked up, species assumed)
DAN domain family member 5: RPEPQSPRPQSWAAANQTWALGPGALPPLVPASALGSWKAFLGLQKARQLGMGRLQRGQDEVAAVTLPLNPQEVIQGMCKAVPFVQVFSRPGCSAIRLRNHLCFGHCSSLYIPGSDPTPLVLCNSCMPARKRWAPVVLWCLTGSSASRRRVKISTMLIEGCHCSPKA

Columns and labels:
Assay in all cases: cell-based or functional assay
[1] = target: human pro-BMP7 protein variant F9 (human) (UniProt P18075)
[2] = target: wild type human mature BMP7 (SEQ ID NO: 2) (human) (UniProt P18075)
[3] = target: wild type human pro-BMP7 (human) (UniProt P18075)
[4] = target: human mature BMP7 protein variant F9 (SEQ ID NO: 8) (human) (UniProt P18075)
Chain of human mature BMP7 protein variant F9 (SEQ ID NO: 8) (human) (P18075 other isoform, or with tags, fused parts or gaps mutant): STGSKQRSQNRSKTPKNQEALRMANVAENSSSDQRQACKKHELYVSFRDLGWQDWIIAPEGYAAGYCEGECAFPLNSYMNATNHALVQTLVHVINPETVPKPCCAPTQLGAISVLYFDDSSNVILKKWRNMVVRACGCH

Chain of human pro-BMP7 protein variant F9 (human) (P18075 other isoform, or with tags, fused parts or gaps mutant, chain 1 of 2): as the sequence (P18075 other isoform, or with tags, fused parts or gaps mutant) above
Chain of human pro-BMP7 protein variant F9 (human) (P18075 other isoform, or with tags, fused parts or gaps mutant, chain 2 of 2): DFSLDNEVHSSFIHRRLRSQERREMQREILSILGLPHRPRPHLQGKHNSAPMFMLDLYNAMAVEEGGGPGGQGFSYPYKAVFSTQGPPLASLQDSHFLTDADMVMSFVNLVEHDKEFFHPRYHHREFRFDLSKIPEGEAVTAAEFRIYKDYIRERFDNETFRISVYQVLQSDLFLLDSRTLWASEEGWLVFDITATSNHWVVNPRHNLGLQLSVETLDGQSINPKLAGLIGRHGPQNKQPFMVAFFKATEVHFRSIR
Chain of wild type human pro-BMP7 (human) (P18075 293-431, chain 1 of 2): as the sequence (P18075 other isoform, or with tags, fused parts or gaps mutant) above, with G65Y, L86I, V93F, G110N, W128Y counted along it
Chain of wild type human pro-BMP7 (human) (P18075 other isoform, or with tags, fused parts or gaps, chain 2 of 2): as the sequence (P18075 other isoform, or with tags, fused parts or gaps mutant, chain 2 of 2) above
Chain of wild type human mature BMP7 (SEQ ID NO: 2) (human) (P18075 293-431): as the sequence (P18075 other isoform, or with tags, fused parts or gaps mutant) above, with G65Y, L86I, V93F, G110N, W128Y counted along it

| Binder | % inhibition, 0.1X molar excess of inhibitor (hepcidin promoter luciferase, Hep3B2 HepPro luc cells) [1] [%] | % inhibition, 1X molar excess of inhibitor (hepcidin promoter luciferase, Hep3B2 HepPro luc cells) [1] [%] | % inhibition, 10X molar excess of inhibitor (hepcidin promoter luciferase, Hep3B2 HepPro luc cells) [1] [%] | % inhibition, 100X molar excess of inhibitor (hepcidin promoter luciferase, Hep3B2 HepPro luc cells) [1] [%] | % inhibition, 0.1X molar excess of inhibitor (hepcidin promoter luciferase, Hep3B2 HepPro luc cells) [2] [%] | % inhibition, 1X molar excess of inhibitor (hepcidin promoter luciferase, Hep3B2 HepPro luc cells) [2] [%] | % inhibition, 10X molar excess of inhibitor (hepcidin promoter luciferase, Hep3B2 HepPro luc cells) [2] [%] | % inhibition, 100X molar excess of inhibitor (hepcidin promoter luciferase, Hep3B2 HepPro luc cells) [2] [%] | % inhibition, 0.1X molar excess of inhibitor (hepcidin promoter luciferase, Hep3B2 HepPro luc cells) [3] [%] | % inhibition, 1X molar excess of inhibitor (hepcidin promoter luciferase, Hep3B2 HepPro luc cells) [3] [%] | % inhibition, 10X molar excess of inhibitor (hepcidin promoter luciferase, Hep3B2 HepPro luc cells) [3] [%] | % inhibition, 100X molar excess of inhibitor (hepcidin promoter luciferase, Hep3B2 HepPro luc cells) [3] [%] | % inhibition, 0.01X molar excess of inhibitor (hepcidin promoter luciferase, Hep3B2 HepPro luc cells) [4] [%] | % inhibition, 0.1X molar excess of inhibitor (hepcidin promoter luciferase, Hep3B2 HepPro luc cells) [4] [%] | % inhibition, 1X molar excess of inhibitor (hepcidin promoter luciferase, Hep3B2 HepPro luc cells) [4] [%] | % inhibition, 10X molar excess of inhibitor (hepcidin promoter luciferase, Hep3B2 HepPro luc cells) [4] [%] |
| --- | --- | --- | --- | --- | --- | --- | --- | --- | --- | --- | --- | --- | --- | --- | --- | --- |
| B1 | -15.2 | -18.3 | -23.6 | -28.1 | -12.2 | 36.7 | 72.8 | 73.7 | -5.3 | 24.8 | 84.8 | 87.3 | -2.6 | -7.2 | -6.9 | -1.2 |
| B2 | -35.4 | -27.5 | 7 |  | -23.6 | -25.9 | 37.6 | 77.4 | -10.2 | 4 | 17.4 | 81.6 | 2.3 | 7 | 7.3 | 28.5 |

Reference: patent publication US20210115100A1
